Laboratory results from patent publication JP2005027671A (dated 2005).

What was measured:
可溶性ヒトVEGF受容体KDR 7N [1] = molecular target: T1, 可溶性ヒトVEGF受容体KDR 7N (human, UniProt P35968 20-757); test: ELISA, coated antigen from 10 ug/ml in 3-fold dilutions
T1 construct: range 1-738; The range 1-738 counts on the mature protein (after the 19-residue signal peptide)

可溶性ヒトVEGF受容体KDR 7N [2] = molecular target: T1, 可溶性ヒトVEGF受容体KDR 7N; test: ELISA, coated antigen 4 ug/ml
可溶性ヒトVEGF受容体Flt-1 7N = molecular target: T2, 可溶性ヒトVEGF受容体Flt-1 7N (human, UniProt P17948 27-750); test: inhibition of 125I-VEGF binding to coated Flt-1 7N, purified antibody
T2 construct: range 1-750; also called 可溶性ヒトFlt-1 7N

ヒトVEGF受容体Flt-1(細胞表面発現) = molecular target: T3, ヒトVEGF受容体Flt-1(細胞表面発現) (human, UniProt P17948 27-1338); test: inhibition of 125I-VEGF binding to NIH3T3-Flt-1 cells, purified antibody
T3 construct: whole, on cells; also called NIH3T3-Flt-1細胞; ヒトVEGF受容体Flt-1発現NIH3T3細胞

可溶性ヒトVEGF受容体KDR 7N [3] = molecular target: T1, 可溶性ヒトVEGF受容体KDR 7N; test: ELISA, coated antigen 4 ug/ml, antibody titrated

T1 sequence (P35968 20-757): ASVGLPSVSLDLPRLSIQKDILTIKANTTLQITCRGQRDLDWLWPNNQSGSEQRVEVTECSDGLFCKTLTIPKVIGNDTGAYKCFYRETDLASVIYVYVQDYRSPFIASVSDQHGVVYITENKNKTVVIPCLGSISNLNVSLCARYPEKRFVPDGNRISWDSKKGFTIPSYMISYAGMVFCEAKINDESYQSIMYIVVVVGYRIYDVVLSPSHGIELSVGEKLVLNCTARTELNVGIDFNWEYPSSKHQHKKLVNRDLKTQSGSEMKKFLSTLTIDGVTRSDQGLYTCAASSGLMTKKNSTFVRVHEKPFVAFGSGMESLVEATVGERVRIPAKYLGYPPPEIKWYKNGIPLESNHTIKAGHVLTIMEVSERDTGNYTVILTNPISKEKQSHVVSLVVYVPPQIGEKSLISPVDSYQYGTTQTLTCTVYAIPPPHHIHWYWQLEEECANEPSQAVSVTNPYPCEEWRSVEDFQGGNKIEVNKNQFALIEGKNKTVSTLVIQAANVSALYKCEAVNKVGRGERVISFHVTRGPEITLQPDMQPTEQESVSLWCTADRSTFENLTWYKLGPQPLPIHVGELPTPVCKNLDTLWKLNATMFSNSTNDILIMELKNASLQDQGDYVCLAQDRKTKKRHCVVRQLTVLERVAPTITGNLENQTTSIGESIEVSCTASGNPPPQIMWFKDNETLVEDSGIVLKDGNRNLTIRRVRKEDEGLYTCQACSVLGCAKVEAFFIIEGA

B1: 抗ヒトVEGF受容体Flt-1ヒト型CDR移植抗体KM8550 (antibody, V domains shown)
VH: QVQLVQSGAEVKKPGASVKVSCKASGYTFINYNMHWVRQAPGQGLEWMGAIFPGNGFTSYNQKFKGRVTITVDKSTSTAYMELSSLRSEDTAVYYCARDGDYYFDYWGQGTLVTVSS
VL: DIQMTQSPSSLSASVGDRVTITCSASSSVSYMHWYQQKPGKAPKLLIYRTSNLASGVPSRFSGSGSGTDFTLTISSLQPEDFATYYCHQWSMYTFGQGTKVEIK
notes: CDR-grafted IgG derived from KM1750; also called pKANTEX1750HV0LV0(I); 1750HV0 + 1750LV0(I)
B1: no binding (tested: 5μg/ml) (可溶性ヒトVEGF受容体KDR 7N [1]).

B2: 抗ヒトVEGF受容体Flt-1ヒト型CDR移植抗体KM8551 (antibody, V domains shown)
VH: QVQLVQSGAEVKKPGASVKVSCKASGYTFINYNMHWVRQAPGQGLEWMGAIFPGNGFTSYNQKFKGRVTITVDKSTSTAYMELSSLRSEDTAVYYCARDGDYYFDYWGQGTLVTVSS
VL: DIVMTQSPDSLAVSLGERATINCSASSSVSYMHWYQQKPGQPPKLLIYRTSNLASGVPDRFSGSGSGTDFTLTISSLQAEDVAVYYCHQWSMYTFGQGTKVEIK
notes: CDR-grafted IgG derived from KM1750; also called pKANTEX1750HV0LV0(IV); 1750HV0 + 1750LV0(IV)
B2: no binding (tested: 5μg/ml) (可溶性ヒトVEGF受容体KDR 7N [1]).

B3: 抗ヒトVEGF受容体Flt-1ヒト型CDR移植抗体KM8552 (antibody, V domains shown)
VH: QVQLVQSGAEVKKPGASVKVSCKASGYTFINYNMHWVRQAPGQGLEWMGAIFPGNGFTSYNQKFKGRVTITVDKSTSTAYMQLRSLRSEDTAVYFCARDGDYYFDYWGQGTLVTVSS
VL: DIQMTQSPSSLSASVGDRVTITCSASSSVSYMHWYQQKPGKAPKLLIYRTSNLASGVPSRFSGSGSGTDFTLTISSLQPEDFATYYCHQWSMYTFGQGTKVEIK
notes: CDR-grafted IgG derived from KM1750 with modified VH framework; also called pKANTEX1750HV3LV0(I); 1750HV3 + 1750LV0(I)
B3: no binding (tested: 5μg/ml) (可溶性ヒトVEGF受容体KDR 7N [1]).

B4: 抗ヒトVEGF受容体Flt-1ヒト型CDR移植抗体KM8553 (antibody, V domains shown)
VH: QVQLVQSGAEVKKPGASVKVSCKASGYTFINYNMHWVRQAPGQGLEWMGAIFPGNGFTSYNQKFKGRVTITVDKSTSTAYMQLRSLRSEDTAVYFCARDGDYYFDYWGQGTLVTVSS
VL: DIVMTQSPDSLAVSLGERATINCSASSSVSYMHWYQQKPGQPPKLLIYRTSNLASGVPDRFSGSGSGTDFTLTISSLQAEDVAVYYCHQWSMYTFGQGTKVEIK
notes: CDR-grafted IgG derived from KM1750 with modified VH framework; also called pKANTEX1750HV3LV0(IV); 1750HV3 + 1750LV0(IV)
B4: no binding (tested: 5μg/ml) (可溶性ヒトVEGF受容体KDR 7N [1]).

B5: 抗ヒトVEGF受容体Flt-1ヒト型CDR移植抗体KM8555 (antibody, V domains shown)
VH: QVQLVQSGAEVKKPGASVKVSCKASGYTFINYNMHWVRQAPGQGLEWMGAIFPGNGFTSYNQKFKGRVTITVDKSTSTAYMQLRSLRSEDTAVYFCARDGDYYFDYWGQGTLVTVSS
VL: DIQMTQSPSSLSASVGEEVTITCSASSSVSYMHWYQQKPGKAPKLLIYRTSNLASGVPSRFSGSGSGTFYTLTISSLQPEDFATYYCHQWSMYTFGQGTKVEIK
notes: CDR-grafted IgG derived from KM1750 with modified VH and VL frameworks; also called pKANTEX1750HV3LV4; 1750HV3 + 1750LV4
B5: no binding (tested: 5μg/ml) (可溶性ヒトVEGF受容体KDR 7N [1]).

B6: 抗ヒトVEGF受容体Flt-1ヒト型CDR移植抗体KM8554 (antibody, V domains shown)
VH: QVQLVQSGAEVKKPGASVKVSCKASGYTFINYNMHWVRQAPGQGLEWMGAIFPGNGFTSYNQKFKGRVTITVDKSTSTAYMELSSLRSEDTAVYYCARDGDYYFDYWGQGTLVTVSS
VL: DIQMTQSPSSLSASVGEEVTITCSASSSVSYMHWYQQKPGKAPKLLIYRTSNLASGVPSRFSGSGSGTFYTLTISSLQPEDFATYYCHQWSMYTFGQGTKVEIK
notes: CDR-grafted IgG derived from KM1750 with modified VL framework; also called pKANTEX1750HV0LV4; 1750HV0 + 1750LV4
B6: no binding (tested: 5μg/ml) (可溶性ヒトVEGF受容体KDR 7N [1]).

B7: 抗ヒトVEGF受容体Flt-1マウスモノクローナル抗体KM1732 (antibody, V domains shown)
VH: QGQMQQSGAELVKPGASVKLSCKPSGFTFSSNYISWLKQKPGQSLEWIAWIYAGTGDASYNQKFTAKAHVTVDTSSSTAYMQLSSLTTEDSAIYYCARHGGDGYWFAYWGQGTLVTVSA
VL: QLVLTQSPAIMSASQGEKVTMTCSASSSVSYMHWYQQKSGTSPKRWIYDTSKLPSGVPARFSGSGSGTSYSLTISSMEAEDAATYYCQQWSSNPPTFGAGTKLELK
notes: Mouse hybridoma IgG (Balb/c mouse immunised with Flt-1 7N, screened on Flt-1 3N); cDNAs were cloned with mouse Cgamma1 and Ckappa probes; also called FERM BP-5698
For B7, the binding result (可溶性ヒトVEGF受容体KDR 7N [2]) was “no binding (tested: 0.1μg/ml)”, the IC50 (可溶性ヒトVEGF受容体Flt-1 7N) was 1.1 µg/mL and the IC50 (ヒトVEGF受容体Flt-1(細胞表面発現)) was 0.05 µg/mL.

B8: 抗ヒトVEGF受容体Flt-1ヒト型キメラ抗体KM2532 (antibody, V domains shown)
VH: QGQMQQSGAELVKPGASVKLSCKPSGFTFSSNYISWLKQKPGQSLEWIAWIYAGTGDASYNQKFTAKAHVTVDTSSSTAYMQLSSLTTEDSAIYYCARHGGDGYWFAYWGQGTLVTVSA
VL: QLVLTQSPAIMSASQGEKVTMTCSASSSVSYMHWYQQKSGTSPKRWIYDTSKLPSGVPARFSGSGSGTSYSLTISSMEAEDAATYYCQQWSSNPPTFGAGTKLELK
notes: Expressed in YB2/0 cells; also called pKANTEX1732
B8: no binding (tested: 0.0152〜100ng/ml) (可溶性ヒトVEGF受容体KDR 7N [3]).

B9: 抗ヒトVEGF受容体Flt-1マウスモノクローナル抗体KM1750 (antibody, V domains shown)
VH: QAFLQQSGAELVRPGASVKMSCKASGYTFINYNMHWVKQTPRQGLEWIGAIFPGNGFTSYNQKFKGKATLTVDKSSSTVYMQLRSLTSEDSAVYFCARDGDYYFDYWGQGTTLTVSS
VL: QIVLTQSPAIMSASLGEEITLTCSASSSVSYMHWYQQKSGTSPKLLIYRTSNLASGVPFRFSGSGSGTFYSLTISSVEAEDAADYYCHQWSMYTFGGGTKLEIK
notes: cDNAs were cloned with mouse Cgamma1 and Ckappa probes; also called FERM BP-5700
B9 was tested, and the binding result (可溶性ヒトVEGF受容体KDR 7N [2]) was “no binding (tested: 0.1μg/ml)”, the IC50 (可溶性ヒトVEGF受容体Flt-1 7N) was 2 µg/mL and the IC50 (ヒトVEGF受容体Flt-1(細胞表面発現)) was 0.041 µg/mL.

B10: 抗ヒトVEGF受容体Flt-1ヒト型キメラ抗体KM2550 (antibody, V domains shown)
VH: QAFLQQSGAELVRPGASVKMSCKASGYTFINYNMHWVKQTPRQGLEWIGAIFPGNGFTSYNQKFKGKATLTVDKSSSTVYMQLRSLTSEDSAVYFCARDGDYYFDYWGQGTTLTVSS
VL: QIVLTQSPAIMSASLGEEITLTCSASSSVSYMHWYQQKSGTSPKLLIYRTSNLASGVPFRFSGSGSGTFYSLTISSVEAEDAADYYCHQWSMYTFGGGTKLEIK
notes: Expressed in YB2/0 cells; also called pKANTEX1750
B10: no binding (tested: 0.0152〜100ng/ml) (可溶性ヒトVEGF受容体KDR 7N [3]).
